B1: COV2-2164 (antibody, V domains shown)
VH: QVQLVQSGAEVKKPGSSVKVSCKASGGTFSSYAISWVRQAPGQGLEWMGGIIPIFGTANYAQKFQGRVTITADESTSTGYMQLSSLRFEDTAVYYCARTSHYDSSGSYFEYWGQGTLVTVSS
VL: EIVLTQSPATLSLSPGERATLSCRASQSVSSYLAWYQQKPGQAPRLLIYDASNRATGIPARFSGSGSGTDFTLTISSLEPEDFAVYYCHKRSNWPPSLTFGGGTKVEIK
B2: CnC2t1p1_B10 (antibody, V domains shown)
VH: QVQLVQSGAEVKKPGSSVKVSCKASGGTFSSYAISWVRQAPGQGLEWMGGIIPIFGTANYAQKFQGRVTITADKSTSTAYMELSSLRSEDTAVYYCARVSGYDSSGYWGDYWGQGTLVTVSS
VL: EIVLTQSPATLSLSPGERATLSCRASQSVSSYLAWYQQKPGQAPRLLIYDASNRATGIPARFSGSGSGTDFTLTISSLEPEDFAVYYCQQRSNWPPALTFGGGTKVEIK
B3: COV2-2002 (antibody, V domains shown)
VH: EVQLVESGGGLVQPGGSLRLSCAASGFTFSFYWMSWVRQAPGKGLEWVANIKQDGSEKYYVDSVKGRSTISRDNAKNSLYLQMNSLRAEDTAVYYCARVGSSSWYFDYWGQGTLVTVSS
VL: not shown
B4: COV2-2333 (antibody, V domains shown)
VH: EVQLVESGGGLVQPGGSLRLSCAASGFTFSIYWMSWVRQAPGKGLQWVANIKQDASEKYYVDSVKGRFTISRDNAKNSLYLQMNSLRAEDTAVYYCARLGGSSWHFDYWGQGTLVTVSS
VL: SYELTQPPSVSVSPGQTASITCSGDKLGDKYSSWYQQKPGQSPVLVIYEDTKRPSGIPERFSGSNSGNTATLTISGTQAMDEADYYCQAWSSSTAVFGGGTKLTVL
B5: COV2-2531 (antibody, V domains shown)
VH: QVQLQESGPGLVKPSETLSLTCSVSGGSIRSYFWNWVRQPPGKGLEWIGYIYYSGSTNYKPSFKSRVTISLDTSKNQISLKLSSVTAADTAVYYCARATWLRDAFGIWGQGTMVTVSS
VL: NFMLTQPHSVSESPGKTVTISCTGNSGSIASNYVQWYQQRPGSAPTTVIYEDSQRPSGVPDRFSGSIDSSSNSASLTISGLKTEDEADYYCQSFDSGNVVFGGGTKLTVL
B6: group 3 germline revertant (antibody, V domains shown)
VH: QVQLQESGPGLVKPSETLSLTCTVSGGSISSYYWSWIRQPPGKGLEWIGYIYYSGSTNYNPSLKSRVTISVDTSKNQFSLKLSSVTAADTAVYYCARATWLRDAFGIWGQGTMVTVSS
VL: NFMLTQPHSVSESPGKTVTISCTGSSGSIASNYVQWYQQRPGSAPTTVIYEDNQRPSGVPDRFSGSIDSSSNSASLTISGLKTEDEADYYCQSYDSSNVVFGGGTKLTVL
B7: C126 (antibody, V domains shown)
VH: QVQLQESGPGLVKPSETLSLSCAVSGGSIGSYFWSWIRQPPGKGLEWIGYLHYSGSTNYNPSLKSRVTISVDTSKNQFSLKLSSVTAADTAVYYCARLQWLRGAFDIWGQGTMVTVSS
VL: NFMLTQPHSVSESPGKTVTISCTGSSGSIASNYVQWYQQRPGSAPTTVINEDNQRPSGVPDRFSGSIDSSSNSASLTISGLKTEDEADYYCQSYDSSNLVFGGGTKLTVL

Key:
[1] = biological target: recombinant stabilized trimeric prefusion ectodomain of the SARS-CoV-2 S protein (S6P_(ecto)) (SARS-CoV-2, UniProt P0DTC2)
[2] = biological target: S protein C-terminal S2 region expressed on HEK293T cells (SARS-CoV-2, Wuhan-Hu-1, UniProt P0DTC2); assay: flow cytometry on cells
SARS-CoV-2 RBD = SARS-CoV-2 RBD (SARS-CoV-2, Wuhan-Hu-1 (assumed), UniProt P0DTC2); assay: ELISA

Row | Binder | binding result [2] | binding result (SARS-CoV-2 RBD) | further results
1 | B1 | – | – | binding result [1]: binds
2 | B2 | binds | – | –
3 | B3 | binds | – | –
4 | B4 | binds | – | –
5 | B5 | – | binds | –
6 | B6 | – | binds | –
7 | B7 | – | binds | –
